Experimental data as given in FireProtDB (doi:10.1529/biophysj.106.103804).

Conditions: Bacillus licheniformis, CD, reversible: Yes
[1] = pH 6, Thermal, Sodium phosphate Sodium fluoride 25 mM 100 mM
[2] = pH 6.5, Thermal, Sodium phosphate Sodium fluoride 25 mM 100 mM
[3] = pH 7, 22 °C, Urea, Fluorescence, Thiol reactivity, Sodium phosphate 100 mM, transition: 3
[4] = pH 7, Thermal, Sodium phosphate Sodium fluoride 25 mM 100 mM
[5] = pH 7.5, Thermal, Sodium phosphate Sodium fluoride 25 mM 100 mM
[6] = pH 8, Thermal, Sodium phosphate Sodium fluoride 25 mM 100 mM

MKLWFSTLKLKKAA [wild type]
heat capacity change of unfolding [1]: 3.9 kcal/mol/K | unfolding enthalpy (van 't Hoff) [1]: 141 kcal/mol | unfolding free energy [1]: 7.2 kcal/mol | Tm [2]: 67.9 °C | unfolding enthalpy (van 't Hoff) [2]: 147 kcal/mol | denaturant midpoint (higher = more stable) [3]: 3 M | unfolding free energy [3]: 5.2 kcal/mol | Tm [4]: 67 °C | unfolding enthalpy (van 't Hoff) [4]: 140 kcal/mol | Tm [5]: 66.5 °C | unfolding enthalpy (van 't Hoff) [5]: 163 kcal/mol | Tm [6]: 65.1 °C | unfolding enthalpy (van 't Hoff) [6]: 133 kcal/mol
